The record followed here is publication PMC7904663 (Nature chemical biology, 2021).

The target in assay [1] is T1, NicA2 (Pseudomonas putida, UniProt F8G0P2).
T1 sequence (F8G0P2 1-482): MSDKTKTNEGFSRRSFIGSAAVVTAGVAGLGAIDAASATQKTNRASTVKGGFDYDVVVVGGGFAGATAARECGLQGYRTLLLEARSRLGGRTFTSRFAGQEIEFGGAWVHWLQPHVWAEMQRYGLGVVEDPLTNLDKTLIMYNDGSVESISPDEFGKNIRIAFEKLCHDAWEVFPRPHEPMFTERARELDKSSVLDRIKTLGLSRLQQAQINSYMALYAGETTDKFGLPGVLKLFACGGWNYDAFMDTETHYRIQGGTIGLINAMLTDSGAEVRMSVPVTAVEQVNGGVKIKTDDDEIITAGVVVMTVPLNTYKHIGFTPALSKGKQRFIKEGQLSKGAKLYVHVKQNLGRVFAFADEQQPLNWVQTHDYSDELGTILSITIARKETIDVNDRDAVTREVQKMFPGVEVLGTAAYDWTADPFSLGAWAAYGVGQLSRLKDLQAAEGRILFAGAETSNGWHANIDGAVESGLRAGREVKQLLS
Put plainly: biochemical.

The target of assay [2] is Nicotine oxidoreductase (NicA2) (Pseudomonas putida S16) (UniProt F8G0P2). Put plainly: stopped-flow absorbance spectrophotometry.

For the compound `c1cncc(C2=NCCC2)c1` [myosmine], the Kd in assay [1] turned out to be 268 ± 3 µM.

In assay [2], “CycN (cytochrome c of Pseudomonas putida S16) (natural protein)” gave a bimolecular rate constant (kon), first phase, N-methylmyosmine-bound NicA2 of 140000 M⁻¹ s⁻¹; a bimolecular rate constant (kon), second phase, N-methylmyosmine-bound NicA2 of 77000 M⁻¹ s⁻¹; a kon, first phase (CycNox with NicA2-Flred) of 1e+06 M⁻¹ s⁻¹.

What is called Kd is a measure of binding affinity in units of concentration. Low readings indicate a tighter complex, high ones a looser complex.
